Measured values: paper PMC10377887, “Individual Contributions of Amido Acid Residues Tyr122, Ile168, and Asp173 to the Activity and Substrate Specificity of Human DNA Dioxygenase ABH2”
Where a chain is given by its changes, count along the chain named.

T1: ABH2 Y122A (human, UniProt Q6NS38 1-261, Y122A)
T1 sequence: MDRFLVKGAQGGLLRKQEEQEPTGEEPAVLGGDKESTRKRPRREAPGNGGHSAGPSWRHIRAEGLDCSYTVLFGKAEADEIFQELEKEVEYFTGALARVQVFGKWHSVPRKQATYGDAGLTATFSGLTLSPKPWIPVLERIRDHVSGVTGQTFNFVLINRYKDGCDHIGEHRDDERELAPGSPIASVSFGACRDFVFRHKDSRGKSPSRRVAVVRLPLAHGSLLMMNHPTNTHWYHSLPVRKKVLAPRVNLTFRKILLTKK

T2: ABH2 I168A (human, UniProt Q6NS38 1-261, I168A)
T2 sequence: T1 sequence with A122Y, I168A

T3: ABH2 D173A (human, UniProt Q6NS38 1-261, D173A)
T3 sequence: T1 sequence with A122Y, D173A

B1: m1A (dsDNA)
DNA 1: AGTTCAATGATCTTCAT
DNA 2: ATGAAGATCATTGAACT
modifications: N1-methyladenine at position 10 of strand 1
B2: m3C (dsDNA)
DNA 1: AGTTCAATGATCTTCAT
DNA 2: ATGAAGATCATTGAACT
modifications: N3-methylcytosine at position 12 of strand 1

Tests used:
Assay in all cases: EMSA; 0.5 mM αKG, 10 mM Mg2+, 2 mM ascorbate; EMSA: 50 mM Tris-HCl pH 8.0, 50 mM KCl, 10 mM MgCl2, 0.5 mM αKG, 2 mM Na ascorbate; 1.2 µM DNA, 0.4-12.8 µM protein; 10 min 37 °C then 5 min on ice; 10% native
Settings in all cases: protein: recombinant; tags: N-terminal His6; label: 5'-FAM on strand 1; blunt
[1] = biological target: T1, ABH2 Y122A
[2] = biological target: T2, ABH2 I168A
[3] = biological target: T3, ABH2 D173A

| Binder | Kd [1] | Kd [2] | Kd [3] |
| --- | --- | --- | --- |
| B1 | 2110 ± 80 nM | 2.7 ± 0.4 µM | 2100 ± 90 nM |
| B2 | 2490 ± 60 nM | 4.1 ± 0.1 µM | 3090 ± 70 nM |
